Test results: PMC8301994, “Kinetic Constraints in the Specific Interaction between Phosphorylated Ubiquitin and Proteasomal Shuttle Factors” (Biomolecules, 2021)

B1: Human Ubqln2-UBA (residues 578 to 621) (domain or fragment, UniProt Q9UHD9 578-621, looked up)
chain: PEVRFQQQLEQLNAMGFLNREANLQALIATGGDINAAIERLLGS
notes: Ubiquilin-2 (Ubqln2), human, UBA domain, residues 578 to 621; synthetic gene with optimized codons in pET11a; 15N- or 15N/13C-labelled in some experiments; also called UBA domain from Ubqln2; Ubiqulin-2 UBA; source: E. coli BL21 (DE3), purified (Ni-NTA, Sephacryl S100; TEV cleavage, second Ni-NTA, Sephacryl S100); not shown: thioredoxin, N-terminal, cleaved; His6, N-terminal, cleaved
B2: Human Rad23A-UBA2 (residues 315 to 363) (domain or fragment)
chain: not shown
notes: UV excision repair protein Rad23A, human, second UBA domain (UBA2), residues 315 to 363; synthetic gene with optimized codons in pET11a; 15N-labelled in the CPMG experiment; also called Rad23-UBA2; second UBA domain (UBA2) from Rad23A; source: E. coli BL21 (DE3), purified (Ni-NTA, Sephacryl S100; TEV cleavage, second Ni-NTA, Sephacryl S100); not shown: thioredoxin, N-terminal, cleaved; His6, …

Legend:
Settings in all cases: both partners purified
[1] = target: T1, S65-phosphorylated ubiquitin (human, UniProt P0CG48 1-76, phosphoserine at 65); assay: NMR CPMG relaxation dispersion; 15N-labeled Ubqln2-UBA 300 uM with 32 uM unlabeled pUb (~10% saturation); 20 mM HEPES, 150 mM NaCl, pH 7.4; two magnetic fields, global fit; kon and koff calculated from kex and the KD
T1 construct: ubiquitin, human; the cut product of the ubiquitin precursor; phosphorylated at S65 by PINK1; One chemical species that exchanges slowly between two conformations, pUbRL and pUbRT; The printed KD, kon and koff are defined for the pUbRL state; 15N-labelled or unlabelled, depending on the experiment; also called pUb; pUbRL (C-terminally relaxed conformation); source: E. coli BL21 star, purified; …

[2] = target: T1, S65-phosphorylated ubiquitin; assay: NMR CPMG relaxation dispersion; 15N-labeled Ubqln2-UBA 300 uM with 228 uM unlabeled pUb (~50% saturation); 20 mM HEPES, 150 mM NaCl, pH 7.4; two magnetic fields, global fit; kon and koff calculated from kex and the KD
[3] = target: T2, Human ubiquitin (unmodified) (human, UniProt P0CG48 1-76); assay: NMR titration; 1H-15N HSQC; 100 uM 15N-labeled Ub or pUb titrated with unlabeled UBA (22.7 to 340.4 uM); 20 mM HEPES, 150 mM NaCl, pH 7.4, 25 C; CSPs of pUb fitted with the revised model of coupled pUbRL/pUbRT equilibria (KD is for pUbRL), CSPs of Ub with a simple one-site model
T2 construct: ubiquitin, human; the cut product of the ubiquitin precursor; cloned into pET11a; 15N-labelled in the NMR titrations; also called unmodified Ub; source: E. coli BL21 star, purified (Sepharose SP, Sephacryl S100)

[4] = target: T1, S65-phosphorylated ubiquitin; assay: as above

| Binder | koff [1] [s⁻¹] | kon [1] [M⁻¹ s⁻¹] | koff [2] [s⁻¹] | kon [2] [M⁻¹ s⁻¹] | Kd [3] [µM] | Kd [4] [µM] |
| --- | --- | --- | --- | --- | --- | --- |
| B1 | 293 ± 27.5 | 6.8e+06 ± 600000 | 678 ± 61 | 1.56e+07 ± 1.4e+06 | 33 ± 3.7 | 43.3 ± 3.6 |
| B2 | – | – | – | – | 356 ± 56 | 404 ± 38.8 |
